# Laboratory results from FireProtDB (doi:10.1002/pro.5560070228).
# Where “and” joins values, the source holds several entries; their conditions need not be identical. Equal values may be shown once.
# Settings: Escherichia coli (strain K12), pH 7, Potassium phosphate 50 mM, KCl 100 mM, reversible: yes
# Chain of Cold shock protein CspA wild type, P0A9X9 (P0A9X9 whole entry): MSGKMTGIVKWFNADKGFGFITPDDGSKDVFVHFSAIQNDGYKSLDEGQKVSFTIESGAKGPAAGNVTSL
substance,measurement,setting,value
"Cold shock protein CspA wild type, P0A9X9",denaturant m value,"10 °C, GdnHCl, Fluorescence",1.7 kcal/mol/M and 2.4 kcal/mol/M and 2.1 kcal/mol/M
same,denaturant midpoint (higher = more stable),"10 °C, GdnHCl, Fluorescence",1.8 M and 1.6 M
same,unfolding free energy,"10 °C, GdnHCl, Fluorescence",3.1 kcal/mol and 3.8 kcal/mol and 3.3 kcal/mol
same,denaturant m value,"10 °C, Urea, Fluorescence",0.59 kcal/mol/M and 0.66 kcal/mol/M and 0.64 kcal/mol/M
same,denaturant midpoint (higher = more stable),"10 °C, Urea, Fluorescence",4.9 M and 5 M and 4.5 M
same,unfolding free energy,"10 °C, Urea, Fluorescence",2.9 kcal/mol and 3.3 kcal/mol and 2.8 kcal/mol
same,denaturant m value,"25 °C, GdnHCl, CD",1.7 kcal/mol/M and 2.9 kcal/mol/M and 2.1 kcal/mol/M
same,denaturant midpoint (higher = more stable),"25 °C, GdnHCl, CD",1.5 M and 1.3 M and 1.6 M
same,unfolding free energy,"25 °C, GdnHCl, CD",2.4 kcal/mol and 3.7 kcal/mol and 3.3 kcal/mol
same,denaturant m value,"25 °C, GdnHCl, Fluorescence",2.2 kcal/mol/M and 2 kcal/mol/M
same,denaturant midpoint (higher = more stable),"25 °C, GdnHCl, Fluorescence",1.4 M and 1.6 M
same,unfolding free energy,"25 °C, GdnHCl, Fluorescence",3.1 kcal/mol and 3.2 kcal/mol and 3 kcal/mol
same,denaturant m value,"25 °C, Urea, CD",0.6 kcal/mol/M and 0.7 kcal/mol/M
same,denaturant midpoint (higher = more stable),"25 °C, Urea, CD",4 M and 4.5 M and 4.1 M
same,unfolding free energy,"25 °C, Urea, CD",2.6 kcal/mol and 3.1 kcal/mol
same,denaturant m value,"25 °C, Urea, Fluorescence",0.71 kcal/mol/M and 0.69 kcal/mol/M and 0.78 kcal/mol/M
same,denaturant midpoint (higher = more stable),"25 °C, Urea, Fluorescence",4.2 M
same,unfolding free energy,"25 °C, Urea, Fluorescence",3 kcal/mol and 2.9 kcal/mol and 3.2 kcal/mol
